Patent publication US20170160291

Target: immature human CFD (proCFD)

Protein | processing of proCFD (IEF immunoblot after overnight incubation at 37 C) | degree of processing of the proCFD N terminus (targeted mass spectrometry, convertase activity test)
recombinant protease MASP1 (protein) HTVELNNMFGQIQSPGYPDSYPSDSEVTWNITVPDGFRIKLYFMHFNLESSYLCEYDYVKVETEDQVLATFCGRETTDTEQTPGQEVVLSPGSFMSITFRSDFSNEERFTGFDAHYMAVDVDECKEREDEELSCDHYCHNYIGGYYCSCRFGYILHTDNRTCRVECSDNLFTQRTGVITSPDFPNPYPKSSECLYTIELEEGFMVNLQFEDIFDIEDHPEVPCPYDYIKIKVGPKVLGPFCGEKAPEPISTQSHSVLILFHSDNSGENRGWRLSYRAAGNECPELQPPVHGKIEPSQAKYFFKDQVLVSCDTGYKVLKDNVEMDTFQIECLKDGTWSNKIPTCKIVDCRAPGELEHGLITFSTRNNLTTYKSEIKYSCQEPYYKMLNNNTGIYTCSAQGVWMNKVLGRSLPTCLPVCGLPKFSRKLMARIFNGRPAQKGTTPWIAMLSHLNGQPFCGGSLLGSSWIVTAAHCLHQSLDPEDPTLRDSDLLSPSDFKIILGKHWRLRSDENEQHLGVKHTTLHPQYDPNTFENDVALVELLESPVLNAFVMPICLPEGPQQEGAMVIVSGWGKQFLQRFPETLMEIEIPIVDHSTCQKAYAPLKKKVTRDMICAGEKEGGKDACAGDSGGPMVTLNRERGQWYLVGTVSWGDDCGKKDRYGVYSYIHHNKDWIQRVTGVRN | ProCFD treated with MASP1 was not strongly processed (lane 1) | –
recombinant protease MASP3 (protein) HTVELNNMFGQIQSPGYPDSYPSDSEVTWNITVPDGFRIKLYFMHFNLESSYLCEYDYVKVETEDQVLATFCGRETTDTEQTPGQEVVLSPGSFMSITFRSDFSNEERFTGFDAHYMAVDVDECKEREDEELSCDHYCHNYIGGYYCSCRFGYILHTDNRTCRVECSDNLFTQRTGVITSPDFPNPYPKSSECLYTIELEEGFMVNLQFEDIFDIEDHPEVPCPYDYIKIKVGPKVLGPFCGEKAPEPISTQSHSVLILFHSDNSGENRGWRLSYRAAGNECPELQPPVHGKIEPSQAKYFFKDQVLVSCDTGYKVLKDNVEMDTFQIECLKDGTWSNKIPTCKIVDCRAPGELEHGLITFSTRNNLTTYKSEIKYSCQEPYYKMLNNNTGIYTCSAQGVWMNKVLGRSLPTCLPECGQPSRSLPSLVKRIIGGRNAEPGLFPWQALIVVEDTSRVPNDKWFGSGALLSASWILTAAHVLRSQRRDTTVIPVSKEHVTVYLGLHDVRDKSGAVNSSAARVVLHPDFNIQNYNHDIALVQLQEPVPLGPHVMPVCLPRLEPEGPAPHMLGLVAGWGISNPNVTVDEIISSGTRTLSDVLQYVKLPVVPHAECKTSYESRSGNYSVTENMFCAGYYEGGKDTCLGDSGGAFVIFDDLSQRWVVQGLVSWGGPEECGSKQVYGVYTKVSNYVDWVWEQMGLPQSVVEPQVER | proCFD treated with MASP3 was almost completely converted into active CFD and even shows further processed forms (lane 2) | Only the proteases from the MASP family, i.e. L. MASP3 show a successful activation of proCFD
recombinant protease C1R (protein) SIPIPQKLFGEVTSPLFPKPYPNNFETTTVITVPTGYRVKLVFQQFDLEPSEGCFYDYVKISADKKSLGRFCGQLGSPLGNPPGKKEFMSQGNKMLLTFHTDFSNEENGTIMFYKGFLAYYQAVDLDECASRSKSGEEDPQPQCQHLCHNYVGGYFCSCRPGYELQEDTHSCQAECSSELYTEASGYISSLEYPRSYPPDLRCNYSIRVERGLTLHLKFLEPFDIDDHQQVHCPYDQLQIYANGKNIGEFCGKQRPPDLDTSSNAVDLLFFTDESGDSRGWKLRYTTEIIKCPQPKTLDEFTIIQNLQPQYQFRDYFIATCKQGYQLIEGNQVLHSFTAVCQDDGTWHRAMPRCKIKDCGQPRNLPNGDFRYTTTMGVNTYKARIQYYCHEPYYKMQTRAGSRESEQGVYTCTAQGIWKNEQKGEKIPRCLPVCGKPVNPVEQRQRIIGGQKAKMGNFPWQVFTNIHGRGGGALLGDRWILTAAHTLYPKEHEAQSNASLDVFLGHTNVEELMKLGNHPIRRVSVHPDYRQDESYNFEGDIALLELENSVTLGPNLLPICLPDNDTFYDLGLMGYVSGFGVMEEKIAHDLRFVRLPVANPQACENWLRGKNRMDVFSQNMFCAGHPSLKQDACQGDSGGVFAVRDPNTDRWVATGIVSWGIGCSRGYGFYTKVLNYVDWIKKEMEEED | The treatment with C1R resulted in a partial processing/activation (lane 3) | –
recombinant protease C1S (protein) EPTMYGEILSPNYPQAYPSEVEKSWDIEVPEGYGIHLYFTHLDIELSENCAYDSVQIISGDTEEGRLCGQRSSNNPHSPIVEEFQVPYNKLQVIFKSDFSNEERFTGFAAYYVATDINECTDFVDVPCSHFCNNFIGGYFCSCPPEYFLHDDMKNCGVNCSGDVFTALIGEIASPNYPKPYPENSRCEYQIRLEKGFQVVVTLRREDFDVEAADSAGNCLDSLVFVAGDRQFGPYCGHGFPGPLNIETKSNALDIIFQTDLTGQKKGWKLRYHGDPMPCPKEDTPNSVWEPAKAKYVFRDVVQITCLDGFEVVEGRVGATSFYSTCQSNGKWSNSKLKCQPVDCGIPESIENGKVEDPESTLFGSVIRYTCEEPYYYMENGGGGEYHCAGNGSWVNEVLGPELPKCVPVCGVPREPFEEKQRIIGGSDADIKNFPWQVFFDNPWAGGALINEYWVLTAAHVVEGNREPTMYVGSTSVQTSRLAKSKMLTPEHVFIHPGWKLLEVPEGRTNFDNDIALVRLKDPVKMGPTVSPICLPGTSSDYNLMDGDLGLISGWGRTEKRDRAVRLKAARLPVAPLRKCKEVKVEKPTADAEAYVFTPNMICAGGEKGMDSCKGDSGGAFAVQDPNDKTKFYAAGLVSWGPQCGTYGLYTRVKNYVDWIMKTMQENSTPRED | the convertase C1S hardly shows effects (lane 4, like MASP1) | –
